Test results published in the supplement of paper PMC10126150.
± gives the standard deviation of the averaged measurements.

Tested on: ATP
Test: switch fluorescence ratio, 500 uM ATP over buffer (Cy3 cluster intensity, sum of 5 cycles each) (fold (ratio)); higher = stronger signal-on switching upon ATP binding; sequences stand for … in TCGTCGGCAGCGTCAGATGTGTATAAGAGACAGTTTTTTTTTTTTTTTTTTTTTTTTT…TC
Details: aptamer strand: ATP DNA aptamer (quencher-CACCTGGGGGAGTATTGCGGAGGAAGG + anchor), 100 nM annealed; ATP concentration: 500 uM
In short: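 The fluorescence ratio divides summed target-cycle Cy3 intensity by summed buffer-cycle Cy3 intensity for each cluster and is averaged per switch-domain sequence. Cy3-labelled switching-strand clusters on a modified Illumina MiSeq flow-cell were annealed to 100 nM quencher-labelled ATP aptamer, then imaged in selection buffer and again after 15 min with 500 uM ATP at 22 °C. Five such cycles were run, with NaOH stripping and re-annealing between them, and clusters outside 100-1000 RFU were excluded.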
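Also: ATP exposure 15 min at 22 °C before imaging.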

Row | Sequence | switch fluorescence ratio
1 | AAAAAAACA | 1.2 ± 0.11
2 | AAAAAAATAG | 1.03 ± 0.014
3 | AAAAAACTAT | 1.02 ± 0.018
4 | AAAAAACTTT | 1.05 ± 0.027
5 | AAAAAAGCAG | 1.024 ± 0.0014
6 | AAAAAAGGAT | 1.024 ± 0.0086
7 | AAAAAAGTTT | 1.02 ± 0.033
8 | AAAAAATCGC | 1.09 ± 0.16
9 | AAAAAATTGT | 0.999 ± 0.019
10 | AAAAACAACT | 1.024 ± 0.0076
11 | AAAAACACTT | 1.04 ± 0.022
12 | AAAAACAGGG | 1.16 ± 0.097
13 | AAAAACCTCG | 1.05 ± 0.013
14 | AAAAACGCTT | 1.01 ± 0.045
15 | AAAAACGGTG | 1.05 ± 0.084
16 | AAAAACGTCT | 1.1 ± 0.016
17 | AAAAAGAATG | 0.973 ± 0.03
18 | AAAAAGATGA | 0.9626 ± 0.0028
19 | AAAAAGGGCG | 0.989 ± 0.02
20 | AAAAAGGGTA | 0.988 ± 0.05
21 | AAAAAGGGTG | 1 ± 0.045
22 | AAAAAGGTTC | 0.991 ± 0.017
23 | AAAAAGTCTC | 0.9891 ± 0.0092
24 | AAAAAGTGGG | 0.992 ± 0.039
25 | AAAAAGTTTT | 0.985 ± 0.058

Row | Sequence | switch fluorescence ratio
26 | AAAAATAATT | 0.983 ± 0.028
27 | AAAAATCACT | 1.04 ± 0.039
28 | AAAAATCTCT | 1.02 ± 0.033
29 | AAAAATCTGC | 1.03 ± 0.12
30 | AAAAATGGCT | 1.04 ± 0.091
31 | AAAAATGTCA | 0.979 ± 0.045
32 | AAAAATTAAA | 1.002 ± 0.0018
33 | AAAAATTAAG | 1.03 ± 0.029
34 | AAAACATCGC | 1.015 ± 0.0029
35 | AAAACATTCG | 1.16 ± 0.12
36 | AAAACATTTT | 1.03 ± 0.049
37 | AAAACCAGCG | 1.03 ± 0.047
38 | AAAACCGGAT | 1.11 ± 0.18
39 | AAAACGAATT | 1.01 ± 0.044
40 | AAAACGAGTG | 1.02 ± 0.023
41 | AAAACGCAGG | 1.02 ± 0.053
42 | AAAACTTGAA | 1.07 ± 0.086
43 | AAAAGACCCG | 1.07 ± 0.044
44 | AAAAGAGCGC | 1.08 ± 0.072
45 | AAAAGCGATC | 1.14 ± 0.038
46 | AAAAGCGTGG | 1 ± 0.019
47 | AAAAGGAGAC | 1.01 ± 0.028
48 | AAAAGGATAG | 0.954 ± 0.017
49 | AAAAGGATGG | 0.979 ± 0.021
50 | AAAAGGCATA | 1.03 ± 0.046

Row | Sequence | switch fluorescence ratio
51 | AAAAGGCCGG | 1.05 ± 0.14
52 | AAAAGGCGTG | 1.01 ± 0.021
53 | AAAAGGGAGT | 0.972 ± 0.013
54 | AAAAGGGGCG | 1 ± 0.019
55 | AAAAGGGTAG | 1.01 ± 0.018
56 | AAAAGGTCGT | 0.999 ± 0.019
57 | AAAAGGTGAA | 1.04 ± 0.089
58 | AAAAGGTGG | 0.983 ± 0.011
59 | AAAAGGTGTA | 0.99 ± 0.0095
60 | AAAAGGTTTT | 1 ± 0.033
61 | AAAAGTATGG | 1 ± 0.015
62 | AAAAGTGGGT | 0.9942 ± 0.0081
63 | AAAAGTGTAT | 0.98 ± 0.03
64 | AAAAGTTTGC | 1.02 ± 0.056
65 | AAAAGTTTTT | 0.997 ± 0.025
66 | AAAATAATCT | 0.9793 ± 0.004
67 | AAAATATGG | 0.997 ± 0.031
68 | AAAATATGTT | 1 ± 0.023
69 | AAAATCAGAG | 0.97 ± 0.024
70 | AAAATCGTCT | 1.08 ± 0.086
71 | AAAATGATAG | 1.06 ± 0.072
72 | AAAATGGCTT | 0.988 ± 0.034
73 | AAAATGGGCT | 0.996 ± 0.038
74 | AAAATGGTTG | 1.04 ± 0.032
75 | AAAATGTGAC | 1.039 ± 0.007

Row | Sequence | switch fluorescence ratio
76 | AAAATGTTTC | 1.02 ± 0.02
77 | AAAATTGCAG | 0.997 ± 0.012
78 | AAAATTGTTG | 0.988 ± 0.049
79 | AAAATTTAAA | 1 ± 0.051
80 | AAAATTTCGC | 1.01 ± 0.018
81 | AAAATTTGGG | 1.02 ± 0.025
82 | AAACACGTTG | 1.018 ± 0.0094
83 | AAACCAGGTA | 1.18 ± 0.048
84 | AAACCCAAAG | 1.02 ± 0.045
85 | AAACCGGGCA | 1.22 ± 0.22
86 | AAACGAGGTC | 1.01 ± 0.032
87 | AAACGATTTA | 1.018 ± 0.0055
88 | AAACGCAGGG | 1.03 ± 0.029
89 | AAACGCGGAC | 3.45 ± 0.49
90 | AAACGCTGCT | 1.02 ± 0.062
91 | AAACGGACGG | 1.24 ± 0.029
92 | AAACGGCTAA | 1.02 ± 0.039
93 | AAACGGGGCG | 0.9719 ± 0.0047
94 | AAACGGGTAG | 1.07 ± 0.1
95 | AAACGTGGTG | 1 ± 0.038
96 | AAACTATAGA | 1.01 ± 0.054
97 | AAACTATGTG | 1.02 ± 0.037
98 | AAACTCATGA | 0.983 ± 0.02
99 | AAACTGACGG | 1.37 ± 0.016
100 | AAACTTAATG | 1.05 ± 0.061

Row | Sequence | switch fluorescence ratio
101 | AAACTTTCTA | 1.05 ± 0.05
102 | AAACTTTTTT | 0.9566 ± 0.0049
103 | AAAGAAAAAT | 1.002 ± 0.005
104 | AAAGAAATTA | 0.997 ± 0.042
105 | AAAGAACCG | 1.085 ± 0.0014
106 | AAAGAACGCT | 1.04 ± 0.015
107 | AAAGAAGCTT | 1.02 ± 0.041
108 | AAAGAAGGGG | 0.995 ± 0.015
109 | AAAGAATTTT | 1 ± 0.05
110 | AAAGACACTC | 1.04 ± 0.071
111 | AAAGACAGTG | 1.01 ± 0.058
112 | AAAGACCCTG | 0.988 ± 0.049
113 | AAAGAGCGGG | 1.02 ± 0.061
114 | AAAGAGGCAA | 1.03 ± 0.047
115 | AAAGAGTGTT | 0.9776 ± 0.0081
116 | AAAGAGTTCA | 1 ± 0.035
117 | AAAGATAGGG | 1.01 ± 0.018
118 | AAAGATCGTG | 0.974 ± 0.01
119 | AAAGATTGTT | 0.954 ± 0.011
120 | AAAGCATAGG | 1.03 ± 0.015
121 | AAAGCCGAAT | 0.99 ± 0.023
122 | AAAGCCTTGG | 0.973 ± 0.021
123 | AAAGCGGTAT | 1.038 ± 0.007
124 | AAAGCGGTTG | 0.98 ± 0.012
125 | AAAGCTAGGA | 0.979 ± 0.036

Row | Sequence | switch fluorescence ratio
126 | AAAGCTGCTT | 0.987 ± 0.024
127 | AAAGCTTGGA | 1.03 ± 0.058
128 | AAAGGAAAGT | 1.01 ± 0.02
129 | AAAGGACGGG | 1.017 ± 0.0031
130 | AAAGGAGCGT | 0.992 ± 0.041
131 | AAAGGAGGGG | 0.983 ± 0.02
132 | AAAGGATCGT | 1.01 ± 0.02
133 | AAAGGATTTG | 0.97 ± 0.0034
134 | AAAGGCCCGT | 1 ± 0.0077
135 | AAAGGCGCTG | 0.984 ± 0.041
136 | AAAGGGACGG | 0.9829 ± 0.0091
137 | AAAGGGAGGG | 1 ± 0.02
138 | AAAGGGCGGA | 0.9884 ± 0.009
139 | AAAGGGCGTG | 0.985 ± 0.022
140 | AAAGGGGACC | 1.09 ± 0.053
141 | AAAGGGGACG | 1.01 ± 0.017
142 | AAAGGGGGGT | 0.989 ± 0.025
143 | AAAGGGGTCG | 1.07 ± 0.036
144 | AAAGGGTCAG | 0.996 ± 0.034
145 | AAAGGGTCAT | 0.9918 ± 0.0086
146 | AAAGGGTTGG | 1.02 ± 0.02
147 | AAAGGTAATT | 1.01 ± 0.015
148 | AAAGGTATGG | 0.961 ± 0.018
149 | AAAGGTGCAC | 0.968 ± 0.11
150 | AAAGGTGCGG | 0.9931 ± 0.0063

Row | Sequence | switch fluorescence ratio
151 | AAAGGTGGGT | 1.51 ± 0.86
152 | AAAGGTTGTT | 1.013 ± 0.0037
153 | AAAGTAGCCT | 1.08 ± 0.057
154 | AAAGTAGGTA | 0.976 ± 0.011
155 | AAAGTAGTAA | 1.01 ± 0.037
156 | AAAGTATATG | 0.983 ± 0.029
157 | AAAGTATTTG | 1.01 ± 0.05
158 | AAAGTATTTT | 1.03 ± 0.067
159 | AAAGTCGCGT | 1 ± 0.032
160 | AAAGTCTGGA | 1.028 ± 0.01
161 | AAAGTGCTAT | 1.02 ± 0.048
162 | AAAGTGCTCC | 1.095 ± 0.0075
163 | AAAGTGGCGT | 0.984 ± 0.08
164 | AAAGTGGTTG | 0.984 ± 0.024
165 | AAAGTGTGCT | 1.01 ± 0.024
166 | AAAGTGTTCC | 1.03 ± 0.017
167 | AAAGTGTTCG | 0.9797 ± 0.0097
168 | AAAGTTATGT | 1 ± 0.045
169 | AAAGTTGGTA | 0.967 ± 0.055
170 | AAAGTTGTCG | 0.969 ± 0.051
171 | AAAGTTTTCA | 1.02 ± 0.028
172 | AAAGTTTTGG | 0.985 ± 0.026
173 | AAAGTTTTGT | 0.983 ± 0.023
174 | AAATAAATTG | 0.999 ± 0.044
175 | AAATAAGTC | 0.945 ± 0.024

Row | Sequence | switch fluorescence ratio
176 | AAATACGCAG | 1.07 ± 0.1
177 | AAATAGGGTG | 1.13 ± 0.18
178 | AAATATAAAC | 1.03 ± 0.087
179 | AAATATTGCG | 0.997 ± 0.034
180 | AAATCACGGA | 1.44 ± 0.23
181 | AAATCGCAGA | 1 ± 0.025
182 | AAATCGGATA | 1.03 ± 0.003
183 | AAATCGTACG | 0.988 ± 0.048
184 | AAATCTGGGT | 0.97 ± 0.013
185 | AAATCTGTAA | 1.03 ± 0.06
186 | AAATGAGCTT | 0.986 ± 0.029
187 | AAATGAGTGT | 0.975 ± 0.026
188 | AAATGCGTTA | 1.01 ± 0.02
189 | AAATGCGTTT | 0.979 ± 0.019
190 | AAATGGAGAC | 1.01 ± 0.034
191 | AAATGGAGGA | 0.988 ± 0.032
192 | AAATGGATAG | 1.007 ± 0.0029
193 | AAATGGATCG | 1 ± 0.018
194 | AAATGGCCAT | 1.01 ± 0.013
195 | AAATGGGGAA | 1.004 ± 0.0069
196 | AAATGGGTGG | 0.997 ± 0.025
197 | AAATGGTGTG | 1.02 ± 0.019
198 | AAATGGTTGT | 1.01 ± 0.02
199 | AAATGTTCTT | 0.986 ± 0.031
200 | AAATGTTGAT | 1.03 ± 0.019
